Patent US7378098
Where no end group is shown, it is not given here.

Target: T1, CXC chemokine receptor 4 (CXCR4) (UniProt P61073 1-352, limits assumed)
T1 construct: whole, on cells; Both are human cell lines; also called CXCR4 receptor; SDF-1 receptor
Test: competition with 4 nM 125I-SDF-1 on CEM cells (FIG. 2C)
Experimental: The results are expressed as percentages of the maximal specific binding that was determined without competing ligand, and are the mean of three independent experiments.

T1 sequence (P61073 whole entry): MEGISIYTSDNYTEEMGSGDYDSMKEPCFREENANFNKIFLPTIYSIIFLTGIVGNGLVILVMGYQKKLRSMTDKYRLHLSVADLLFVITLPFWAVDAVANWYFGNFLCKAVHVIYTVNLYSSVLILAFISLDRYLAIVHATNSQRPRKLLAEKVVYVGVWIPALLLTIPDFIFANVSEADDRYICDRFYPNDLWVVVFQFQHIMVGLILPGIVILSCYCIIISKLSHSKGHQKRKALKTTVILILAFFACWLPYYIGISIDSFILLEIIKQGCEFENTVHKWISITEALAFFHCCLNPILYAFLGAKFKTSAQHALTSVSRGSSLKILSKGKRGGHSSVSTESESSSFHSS

B1: SDF-1(1-8)2-lysine bridge dimer (CTCE9904) (peptide)
peptide 1: KPVSLSYRK-NH2
peptide 2: KPVSLSYR
modifications: also: dimer: two KPVSLSYR chains bridged through alpha and epsilon amino groups of one lysinamide, lactam at chain A 9 at chain B 8 to a chain's C-terminus
notes: It is not known whether the bridging lysine is part of either listing entry; also called SDF-1 (1-8)2-lysine dimer
binding result: binds
